The source of these data is patent US20120094909A1 (Bristol-Myers Squibb, published 2012).

The target in assay [1] is T1, human serum albumin (human, UniProt P02768 25-609).
T1 construct: also called HSA
The assay can be described thus: SPR (Biacore), albumin captured on chip, SABA in flow. The protocol:
(§1) The kinetics of selected SABA clones purified from HTPP and/or midscaled material described in Examples 5A and 5B were determined by capturing the respective serum albumin (HSA/RhSA/MuSA) on the surface of a Biasensor CMS chip and flowing a concentration series of SABAs over both the reference flow cell and the captured albumins. In addition, binding to albumin was carried out under various pH conditions ranging from pH 5.5 to pH 7.4.
T1 sequence (P02768 25-609 limits assumed): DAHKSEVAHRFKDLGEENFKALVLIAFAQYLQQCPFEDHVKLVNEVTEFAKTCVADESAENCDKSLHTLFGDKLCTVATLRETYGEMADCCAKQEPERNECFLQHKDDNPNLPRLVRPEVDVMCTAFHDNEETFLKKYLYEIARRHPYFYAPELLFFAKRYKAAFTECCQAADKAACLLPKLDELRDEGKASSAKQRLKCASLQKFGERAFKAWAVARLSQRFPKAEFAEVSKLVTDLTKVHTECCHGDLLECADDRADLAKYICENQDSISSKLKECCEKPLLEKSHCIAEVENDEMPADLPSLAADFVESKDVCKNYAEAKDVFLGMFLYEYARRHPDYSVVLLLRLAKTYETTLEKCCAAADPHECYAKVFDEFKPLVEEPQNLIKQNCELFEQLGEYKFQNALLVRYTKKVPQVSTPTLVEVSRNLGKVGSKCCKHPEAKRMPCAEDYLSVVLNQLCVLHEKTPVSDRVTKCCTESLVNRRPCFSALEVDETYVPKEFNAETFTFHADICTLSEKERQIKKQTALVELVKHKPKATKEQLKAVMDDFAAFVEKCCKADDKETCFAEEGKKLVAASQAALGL
On the technique in general: Surface plasmon resonance follows binding to a sensor surface in real time, without labels.

Assay [2] has as its target T2, rhesus serum albumin (rhesus, UniProt Q28522 17-600).
T2 construct: also called RhSA
The assay is described as above. The protocol: as §1
T2 sequence (Q28522 17-600 limits assumed): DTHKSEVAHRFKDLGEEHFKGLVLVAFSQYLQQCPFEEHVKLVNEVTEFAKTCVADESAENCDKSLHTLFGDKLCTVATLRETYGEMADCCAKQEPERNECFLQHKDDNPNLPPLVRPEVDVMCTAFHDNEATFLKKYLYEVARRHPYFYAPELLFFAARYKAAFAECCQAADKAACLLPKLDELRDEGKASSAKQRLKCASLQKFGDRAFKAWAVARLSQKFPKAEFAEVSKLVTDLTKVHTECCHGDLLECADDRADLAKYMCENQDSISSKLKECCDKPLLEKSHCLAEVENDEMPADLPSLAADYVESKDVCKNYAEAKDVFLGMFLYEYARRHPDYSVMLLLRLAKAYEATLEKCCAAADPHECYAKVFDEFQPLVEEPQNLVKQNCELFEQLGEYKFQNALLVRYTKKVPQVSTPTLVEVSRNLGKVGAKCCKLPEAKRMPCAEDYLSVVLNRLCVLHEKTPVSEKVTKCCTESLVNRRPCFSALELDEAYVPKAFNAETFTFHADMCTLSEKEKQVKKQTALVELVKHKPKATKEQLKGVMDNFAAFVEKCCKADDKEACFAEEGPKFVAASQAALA

Assay [3] concerns the target T1, human serum albumin. The experiment in a line: SPR (Biacore), albumin captured on chip, SABA in flow; n = 6. As to the method: as §1
The target in assay [4] is T1, human serum albumin. The experiment in a line: SPR (Biacore), albumin captured on chip, SABA in flow; n = 4. The protocol:
as §1

The target of assay [5] is T3, human serum albumin (human, UniProt P02768 25-609).
T3 construct: also called HSA
The experiment in a line: kinetic analysis, HBS-P buffer.
T3 sequence (P02768 25-609 limits assumed): as the sequence (P02768 25-609 limits assumed) above

In assay [6] the target is T4, rhesus serum albumin (rhesus, UniProt Q28522 17-600).
T4 construct: also called RhSA
The assay can be described thus: kinetic analysis, HBS-P buffer.
T4 sequence (Q28522 17-600 limits assumed): as the sequence (Q28522 17-600 limits assumed) above

Assay [7] deals with T5, murine serum albumin (mouse, UniProt P07724 25-608).
T5 construct: also called MuSA; mouse serum albumin
The experiment in a line: kinetic analysis and direct binding ELISA (Table 18, FIG. 27). In general terms: An ELISA detects its analyte on a solid surface through an enzyme-linked reagent.

The next assay concerns the target rat serum albumin (rat, UniProt P02770 25-608). The description is as above.
Assay [8] concerns the target T1, human serum albumin. The assay can be described thus: kinetic binding analysis in MES buffer, pH 5.5.
In assay [9] the target is T2, rhesus serum albumin. The experiment in a line: kinetic binding analysis in MES buffer, pH 5.5.
The target of assay [10] is T1, human serum albumin. The assay can be described thus: kinetic binding analysis in MES buffer, pH 7.4.
The target of assay [11] is T2, rhesus serum albumin. The experiment in a line: kinetic binding analysis in MES buffer, pH 7.4.
In assay [12] the target is T1, human serum albumin. The experiment in a line: kinetic binding analysis in HBS-P buffer, 25 °C.
Assay [13] has as its target T2, rhesus serum albumin. The experiment in a line: kinetic binding analysis in HBS-P buffer, 25 °C.
Assay [14] has as its target T6, murine serum albumin (mouse, UniProt P07724 25-608).
T6 construct: also called MuSA; Mouse
The assay can be described thus: kinetic binding analysis in HBS-P buffer, 25 °C.

Assay [15] deals with T1, human serum albumin. The experiment in a line: kinetic binding analysis in HBS-P buffer, 37 °C.
Assay [16] has as its target T2, rhesus serum albumin. The assay can be described thus: kinetic binding analysis in HBS-P buffer, 37 °C.
Assay [17] deals with T2, rhesus serum albumin. The assay can be described thus: SPR (Biacore), albumin captured on chip, SABA in flow; n = 4. The protocol:
as §1

For assay [18], the target named is T1, human serum albumin. The experiment in a line: SPR (Biacore), albumin captured on chip, SABA in flow; n = 9. The protocol: as §1

rat serum albumin, sequence (P02770 25-608 limits assumed): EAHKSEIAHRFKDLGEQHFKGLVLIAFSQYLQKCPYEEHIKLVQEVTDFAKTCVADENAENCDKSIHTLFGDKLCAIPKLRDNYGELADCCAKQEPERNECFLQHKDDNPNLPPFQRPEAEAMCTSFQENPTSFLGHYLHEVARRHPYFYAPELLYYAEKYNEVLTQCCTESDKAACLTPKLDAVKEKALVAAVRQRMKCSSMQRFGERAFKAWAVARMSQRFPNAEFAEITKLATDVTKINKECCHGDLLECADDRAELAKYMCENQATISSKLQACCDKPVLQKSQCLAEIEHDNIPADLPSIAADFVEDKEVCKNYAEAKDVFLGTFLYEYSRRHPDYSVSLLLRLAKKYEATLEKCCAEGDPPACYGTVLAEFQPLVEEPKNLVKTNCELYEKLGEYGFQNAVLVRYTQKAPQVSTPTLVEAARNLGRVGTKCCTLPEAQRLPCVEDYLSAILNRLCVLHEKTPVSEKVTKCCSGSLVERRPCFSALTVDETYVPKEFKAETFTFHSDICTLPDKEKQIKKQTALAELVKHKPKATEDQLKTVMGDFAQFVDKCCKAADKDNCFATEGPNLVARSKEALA

B1: SABA2.1 (designed binder)
chain: MGVSDVPRDLEVVAATPTSLLISWPKYDKTGHYYRITYGETGGNSPVQEFTVPTRQTTATISGLKPGVDYTITVYAVSKDDYYPHEHRPISINYRTEIDKPSQHHHHHH
With B1, the off-rate constant (koff) – broadly, a measure of how fast the partners let go of each other – with human serum albumin [1] is 0.000171 s⁻¹; with rhesus serum albumin [2], 0.000442 s⁻¹. The Kd (in general, the free concentration of one partner at which half of the binding sites on the other are occupied at equilibrium, for simple one-to-one binding) in the assay with rhesus serum albumin [2] is 63.6 nM; with human serum albumin [3], 33.8 nM.

B2: SABA4.1 (designed binder)
chain: MGVSDVPRDLEMVAATPTSLLISWEDDSYYSRYYRITYGETGGNSPVQEFTVPSDLYTATISGLKPGVDYTITVYAVTYDVTDLIMHEPISINYRTEIDKPSQHHHHHH
notes: Carries a scaffold mutation; SABA5 is the scaffold-perfect version
As to B2, the koff turned out to be 0.000782 s⁻¹ with human serum albumin [1] and 0.00383 s⁻¹ with rhesus serum albumin [2]. Moreover, the results for the Kd with rhesus serum albumin [2] and in the assay with human serum albumin [4] were > 1000 nM and 412 nM, respectively.

B3: SABA1.2 (designed binder)
chain: MGVSDVPRDLEVVAATPTSLLISWHSYYEQNSYYRITYGETGGNSPVQEFTVPYSQTTATISGLKPGVDYTITVYAVYGSKYYYPISINYRTEIEDEDEDEDED
notes: core 1 10Fn3 with (ED)5 extension
As to B3, in the assay with human serum albumin [5], the “fold increase in affinity at 37 C against 25 C” value is ~2 fold. Besides, the “affinity at 37 C relative to 25 C” value in the assay with rhesus serum albumin [6] was 0.5 fold. In addition, the binding result in the assay with murine serum albumin [7] and in the assay with rat serum albumin was “no binding (tested: up to 1 µM)” throughout.

B4: SABA1.2 (designed binder)
chain: B3 chain
notes: It has no His tag; also called "core 1" 10Fn3 comprising an (ED)5 extension
As to B4, the Kd is 28.6 nM in the assay with human serum albumin [8]; 359 nM with rhesus serum albumin [9]; 41.9 nM in the assay with human serum albumin [10]; 479 nM in the assay with rhesus serum albumin [11]; 55.3 nM in the assay with human serum albumin [12]; 580 nM in the assay with rhesus serum albumin [13]. Also, the Kd worked out at 24.1 nM with human serum albumin [15] and 977 nM with rhesus serum albumin [16]. Also, the koff with human serum albumin [8] worked out at 0.00027 s⁻¹; with rhesus serum albumin [9] it was 0.00272 s⁻¹; with human serum albumin [10] it was 0.000388 s⁻¹; in the assay with rhesus serum albumin [11], 0.00295 s⁻¹; with human serum albumin [12], 0.000443 s⁻¹; with rhesus serum albumin [13], 0.00378 s⁻¹. Moreover, the off-rate (koff) in the assay with human serum albumin [15] was 0.000815 s⁻¹; in the assay with rhesus serum albumin [16], 0.0185 s⁻¹. The kon (usually the rate constant with which the complex forms) is 9440 M⁻¹ s⁻¹ in the assay with human serum albumin [8]; 7570 M⁻¹ s⁻¹ in the assay with rhesus serum albumin [9]; 9260 M⁻¹ s⁻¹ in the assay with human serum albumin [10]; 6160 M⁻¹ s⁻¹ with rhesus serum albumin [11]; 8210 M⁻¹ s⁻¹ in the assay with human serum albumin [12]; 6600 M⁻¹ s⁻¹ with rhesus serum albumin [13]. Further, the kon came out at 33800 M⁻¹ s⁻¹ with human serum albumin [15] and 18900 M⁻¹ s⁻¹ in the assay with rhesus serum albumin [16]. The binding result with murine serum albumin [14] is listed as “no binding (tested: up to 1 µM)”.

B5: SABA1.1 (designed binder)
chain: MGVSDVPRDLEVVAATPTSLLISWHSYYEQNSYYRITYGETGGNSPVQEFTVPYSQTTATISGLKPGVDYTITVYAVYGSKYYYPISINYRTEIDKPSQHHHHHH
notes: also called clone 1318H04
As for B5, the figures for the koff with human serum albumin [1] and in the assay with rhesus serum albumin [2] were 0.000457 s⁻¹ and 0.00545 s⁻¹, respectively. Besides, the results for the Kd with rhesus serum albumin [17] and with human serum albumin [18] were 778 nM and 47.2 nM, respectively.
